Assay results reported in patent KR20210154940A (dated 2021).

T1: hCEACAM1 (R&D Systems, CAT. NO. 2244-CM) (human, UniProt P13688 35-428)
T1 construct: not shown: a His tag is implied by the use of Anti-His (His1K) biosensors
T1 sequence: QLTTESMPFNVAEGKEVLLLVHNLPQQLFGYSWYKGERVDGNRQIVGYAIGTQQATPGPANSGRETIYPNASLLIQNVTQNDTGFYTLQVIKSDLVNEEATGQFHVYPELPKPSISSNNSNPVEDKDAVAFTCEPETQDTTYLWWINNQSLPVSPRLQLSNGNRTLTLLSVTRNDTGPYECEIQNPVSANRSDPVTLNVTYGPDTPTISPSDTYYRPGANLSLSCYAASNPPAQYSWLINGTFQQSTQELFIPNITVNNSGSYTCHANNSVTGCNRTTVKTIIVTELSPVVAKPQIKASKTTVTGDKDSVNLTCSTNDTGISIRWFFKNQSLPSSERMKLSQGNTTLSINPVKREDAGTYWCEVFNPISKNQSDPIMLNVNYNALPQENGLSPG


Key:
[1] = biological target: CEACAM1 N-도메인 (CEACAM1 N-domain, residues 35-141) (human) (UniProt P13688); test: X-ray crystal structure of the Fab and N-domain complex
[2] = biological target: T1, hCEACAM1 (R&D Systems, CAT. NO. 2244-CM); test: not named in this sentence (BLI in Example 4); differs from the table cell
[3] = biological target: T1, hCEACAM1 (R&D Systems, CAT. NO. 2244-CM); test: BLI (Octet QKe); sentence that introduces Table 5, differs from the table cell
[4] = biological target: T1, hCEACAM1 (R&D Systems, CAT. NO. 2244-CM); test: BLI (Octet QKe); Anti-His (His1K) biosensors, hCEACAM1 (R&D 2244-CM), antibody at 6.25-400 nM

항원-항체 결합의 전체 표면적 [1] [Å2]	Kd [2] [nM]	Kd [3] [nM]	Kd [4] [nM]	koff [4] [s⁻¹]	kon [4] [M⁻¹ s⁻¹]	Binder
792	–	–	–	–	–	항-CEACAM1 항체의 Fab (Fab of the anti-CEACAM1 antibody, papain fragment of the IgG1-type antibody) (Fab, V domains shown) VH: EVQLLESGGGLVQPGGSLRLSCAASGFTFSNYAMSWVRQAPGKGLEWVSVISHGGGSIYYADSVKGRLTISRDNSKNTLYLQMNSLRAEDTAVYYCARDPTKGYAPTFDYWGQGTLVTVSS VL: QSVLTQPPSASGTPGQRVTISCSGSSSNIGNNYVSWYQQLPGTAPKLLIYADSRRPSGVPDRFSGSKSGTSASLAISGLRSEDEADYYCGAWDLSLNGYVFGGGTKLTVLG
–	3.36	3.9	3.39	0.000567	163000	항-CEACAM1 항체 (anti-CEACAM1 antibody, IgG4 type) (antibody, V domains shown, also called 일 실시예의 항-CEACAM1 항체) VH: EVQLLESGGGLVQPGGSLRLSCAASGFTFSNYAMSWVRQAPGKGLEWVSVISHGGGSIYYADSVKGRLTISRDNSKNTLYLQMNSLRAEDTAVYYCARDPTKGYAPTFDYWGQGTLVTVSS VL: QSVLTQPPSASGTPGQRVTISCSGSSSNIGNNYVSWYQQLPGTAPKLLIYADSRRPSGVPDRFSGSKSGTSASLAISGLRSEDEADYYCGAWDLSLNGYVFGGGTKLTVLG
